The source of these data is the supplement of paper PMC9112550, “Optimization of the antimicrobial peptide Bac7 by deep mutational scanning” (BMC Biology, 2022).

The data set deals with Escherichia coli TOP10. The experiment in a line: shrunken log2 fold change of peptide-encoding DNA abundance (4.5 h post-induction vs induction); higher = less antimicrobial activity (less host growth inhibition). The conditions noted are these: time post-induction: 4.5 h; library: site-saturation at positions 5, 18, 19, 20.
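Also: peptides expressed intracellularly from a pBAD plasmid library in pooled LB shake-flask culture, induced with 0.3% L-arabinose, DNA abundance read by NGS, three biological replicates, DESeq2 with apeglm shrinkage.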

Take RRIRPRPPRLPRPRPRPVQMPRP: the “shrunken log2 fold change” value was 0.0287. To RRIRLRPPRLPRPRPRPQRHPRP belongs -0.0803; to RRIRRRPPRLPRPRPRPAPCPRP, 0.884; to RRIRERPPRLPRPRPRPMMTPRP, -0.067. For RRIRYRPPRLPRPRPRPDPDPRP, the “shrunken log2 fold change” value was -0.162. To RRIRCRPPRLPRPRPRPGKIPRP belongs -0.399.

RRIRHRPPRLPRPRPRPMQWPRP: the “shrunken log2 fold change” value came to 0.00884. Turning to RRIRIRPPRLPRPRPRPSTIPRP, the “shrunken log2 fold change” value is -0.361.

For RRIRQRPPRLPRPRPRPYGEPRP, the “shrunken log2 fold change” value was -0.0137. Regarding RRIRTRPPRLPRPRPRPHKCPRP, the “shrunken log2 fold change” value amounted to 0.215.

As to RRIRLRPPRLPRPRPRPLKIPRP, the “shrunken log2 fold change” value is -0.221. The same measure for RRIRRRPPRLPRPRPRPVRAPRP: 0.935. On to RRIRERPPRLPRPRPRPALCPRP, for which the “shrunken log2 fold change” value was determined as 0.0446. Turning to RRIRWRPPRLPRPRPRPFTNPRP, the “shrunken log2 fold change” value was determined as 0.115. Consider RRIRTRPPRLPRPRPRPWDGPRP, for which the “shrunken log2 fold change” value is 0.0729. Turning to RRIRMRPPRLPRPRPRPAFHPRP, the “shrunken log2 fold change” value was 0.319. For RRIRRRPPRLPRPRPRPCAGPRP, the “shrunken log2 fold change” value worked out at 0.357. RRIRVRPPRLPRPRPRPHKRPRP: the “shrunken log2 fold change” value turned out to be 0.06. For RRIRHRPPRLPRPRPRPPWIPRP, the “shrunken log2 fold change” value was 0.0139.

Consider RRIRTRPPRLPRPRPRPMMWPRP, for which the “shrunken log2 fold change” value amounted to 0.00735. Consider RRIRCRPPRLPRPRPRPEEIPRP, for which the “shrunken log2 fold change” value was -0.0231. With RRIRDRPPRLPRPRPRPNECPRP, the “shrunken log2 fold change” value amounted to 0.0169. Regarding RRIRVRPPRLPRPRPRPVYYPRP, the “shrunken log2 fold change” value was -0.696. On to RRIRHRPPRLPRPRPRPMQFPRP, for which the “shrunken log2 fold change” value turned out to be 0.00869. Take RRIRYRPPRLPRPRPRPYEKPRP: the “shrunken log2 fold change” value was -0.117. To RRIRDRPPRLPRPRPRPYRWPRP belongs -0.146. To RRIRMRPPRLPRPRPRPWLSPRP belongs 0.0302. On to RRIRMRPPRLPRPRPRPNPVPRP, for which the “shrunken log2 fold change” value was -0.0385.

RRIRDRPPRLPRPRPRPHDIPRP: the “shrunken log2 fold change” value came to 0.0555.

With RRIRLRPPRLPRPRPRPTGGPRP, the “shrunken log2 fold change” value was 0.621. The same measure for RRIRWRPPRLPRPRPRPYTNPRP: -0.993; for RRIRLRPPRLPRPRPRPSTRPRP: 0.174. Turning to RRIRVRPPRLPRPRPRPDHRPRP, the “shrunken log2 fold change” value is -0.272. On to RRIRARPPRLPRPRPRPYSNPRP, for which the “shrunken log2 fold change” value is -0.781.

On to RRIRGRPPRLPRPRPRPDRQPRP, for which the “shrunken log2 fold change” value is -0.11.

For RRIRWRPPRLPRPRPRPIMQPRP, the “shrunken log2 fold change” value came to 0.0828. To RRIRRRPPRLPRPRPRPDKWPRP belongs 0.107; to RRIRMRPPRLPRPRPRPEEFPRP, 0.0141; to RRIRSRPPRLPRPRPRPYLKPRP, -0.0359. In the case of RRIRPRPPRLPRPRPRPIRLPRP, the “shrunken log2 fold change” value is 0.0338. RRIRVRPPRLPRPRPRPTVAPRP: the “shrunken log2 fold change” value came to 0.37. Turning to RRIRARPPRLPRPRPRPGCHPRP, the “shrunken log2 fold change” value came out at 0.265. As to RRIRARPPRLPRPRPRPHGMPRP, the “shrunken log2 fold change” value turned out to be 0.238. With RRIRYRPPRLPRPRPRPRMKPRP, the “shrunken log2 fold change” value was -0.241.

Regarding RRIRGRPPRLPRPRPRPAYGPRP, the “shrunken log2 fold change” value is -0.0354. For RRIRCRPPRLPRPRPRPRPYPRP, the “shrunken log2 fold change” value is -0.0927. As to RRIRTRPPRLPRPRPRPNMPPRP, the “shrunken log2 fold change” value was -0.0405.

On to RRIRNRPPRLPRPRPRPYVEPRP, for which the “shrunken log2 fold change” value was -0.00677. Regarding RRIRWRPPRLPRPRPRPQTVPRP, the “shrunken log2 fold change” value is -0.0322. Take RRIRFRPPRLPRPRPRPVCKPRP: the “shrunken log2 fold change” value is -0.139. With RRIRTRPPRLPRPRPRPVYFPRP, the “shrunken log2 fold change” value is -0.558. As to RRIRQRPPRLPRPRPRPACMPRP, the “shrunken log2 fold change” value is -0.294.

For the sequence RRIRIRPPRLPRPRPRPTPTPRP, the “shrunken log2 fold change” value is 0.387.

RRIRIRPPRLPRPRPRPAISPRP: the “shrunken log2 fold change” value amounted to 0.0106.

For the sequence RRIRARPPRLPRPRPRPDRGPRP, the “shrunken log2 fold change” value was -0.283.

Consider RRIRHRPPRLPRPRPRPVEQPRP, for which the “shrunken log2 fold change” value amounted to 0.0184. To RRIRMRPPRLPRPRPRPCQNPRP belongs 0.0761. RRIRTRPPRLPRPRPRPVVPPRP: the “shrunken log2 fold change” value is -0.314. For RRIRLRPPRLPRPRPRPPVPPRP, the “shrunken log2 fold change” value stood at 0.374. Turning to RRIRVRPPRLPRPRPRPEWFPRP, the “shrunken log2 fold change” value was -0.154. RRIRWRPPRLPRPRPRPRAKPRP: the “shrunken log2 fold change” value was found to be 0.788.

For RRIRDRPPRLPRPRPRPCTCPRP, the “shrunken log2 fold change” value is -0.198. As to RRIRTRPPRLPRPRPRPPYFPRP, the “shrunken log2 fold change” value came out at 0.202. Turning to RRIRFRPPRLPRPRPRPAKRPRP, the “shrunken log2 fold change” value came out at 0.21.

Take RRIRKRPPRLPRPRPRPELTPRP: the “shrunken log2 fold change” value was 2.29. For RRIRPRPPRLPRPRPRPANNPRP, the “shrunken log2 fold change” value is -0.353. Consider RRIRRRPPRLPRPRPRPMQWPRP, for which the “shrunken log2 fold change” value worked out at 0.103. In the case of RRIRVRPPRLPRPRPRPTCYPRP, the “shrunken log2 fold change” value is -0.118. Regarding RRIRPRPPRLPRPRPRPYLQPRP, the “shrunken log2 fold change” value is -0.831. On to RRIRWRPPRLPRPRPRPNLFPRP, for which the “shrunken log2 fold change” value amounted to 0.144. With RRIRQRPPRLPRPRPRPQLTPRP, the “shrunken log2 fold change” value was -0.405.

For the sequence RRIRNRPPRLPRPRPRPYKMPRP, the “shrunken log2 fold change” value was -0.0115. For the sequence RRIRVRPPRLPRPRPRPRVFPRP, the “shrunken log2 fold change” value came to 0.218. RRIRTRPPRLPRPRPRPFNPPRP: the “shrunken log2 fold change” value is -1.37.

Turning to RRIRYRPPRLPRPRPRPGHMPRP, the “shrunken log2 fold change” value was -0.195. In the case of RRIRCRPPRLPRPRPRPMCCPRP, the “shrunken log2 fold change” value is -0.038. Turning to RRIRYRPPRLPRPRPRPCIEPRP, the “shrunken log2 fold change” value was -0.0017. As to RRIRSRPPRLPRPRPRPCKGPRP, the “shrunken log2 fold change” value was -0.3. Take RRIRHRPPRLPRPRPRPGIVPRP: the “shrunken log2 fold change” value is -0.286. With RRIRNRPPRLPRPRPRPVYTPRP, the “shrunken log2 fold change” value is -0.361. On to RRIRDRPPRLPRPRPRPATRPRP, for which the “shrunken log2 fold change” value turned out to be 0.701. For the sequence RRIRKRPPRLPRPRPRPQKHPRP, the “shrunken log2 fold change” value worked out at 0.224.

Regarding RRIRIRPPRLPRPRPRPCDMPRP, the “shrunken log2 fold change” value is -0.511. Turning to RRIRRRPPRLPRPRPRPNVMPRP, the “shrunken log2 fold change” value is -0.149. Turning to RRIRGRPPRLPRPRPRPMHWPRP, the “shrunken log2 fold change” value turned out to be 0.382. On to RRIRTRPPRLPRPRPRPCSTPRP, for which the “shrunken log2 fold change” value was -0.11. The same measure for RRIRKRPPRLPRPRPRPSCTPRP: 0.0868. The same measure for RRIRIRPPRLPRPRPRPMPIPRP: -0.0218; for RRIRDRPPRLPRPRPRPCAIPRP: 0.029; for RRIRQRPPRLPRPRPRPCIIPRP: -0.0528. With RRIRRRPPRLPRPRPRPNSSPRP, the “shrunken log2 fold change” value came to 0.105.
